Assay results published in publication PMC4674064, “Newly Characterized Region of CP190 Associates with Microtubules and Mediates Proper Spindle Morphology in Drosophila Stem Cells” (PLoS ONE, 2015).

Molecular target: the molecule itself
Assay: SEC-MALS; Superdex 200 10/300 GL, 25 mM Tris pH 7.4, 0.2 g/L NaN2, 0.5 mL/min

B1: Drosophila melanogaster CP190 BTB domain (residues 1-135) (domain or fragment, UniProt Q24478 1-135, looked up)
chain: MGEVKSVKVDNWGVFFLQKLQNFFNKTDYCDLTLQFRDNSQLKVHRLVLSACTDYFNVLEQTCEIVDDALIMPNEFQADVVVPIVNFMYTGTLEFELKMYGKLLRTAKEMNMTVLLKLLEAHRRTMENVNRQQRP
notes: CP190 (centrosome associated protein at 190 kDa), Drosophila melanogaster, BTB domain, residues 1-135; the final crystal model holds residues 2-121; Native and selenomethionine-substituted protein were crystallised; also called BTB-WT; source: E. coli BL21 DE3 (pLysS), purified (Ni-NTA, thrombin digestion, Q-sepharose ion exchange); not shown: His6, N-terminal, cleaved
stoichiometry N: 2
